Like-named read-outs stand apart in the source and are kept apart here.
Assays:
[1] = molecular target: T1, nanodisc embedded human CACNG1 expressed with a C-terminal PADRE-Flag-His tag (human, UniProt Q06432 1-222); experiment: SPR (Biacore T200), 25 C, anti-His-captured human CACNG1 nanodisc, antibody as analyte
T1 construct: Membrane protein (gamma-1 subunit of the skeletal muscle L-type calcium channel) in a nanodisc; also called human CACNG1 nanodisc; CACNG1 nanodisc; not shown: C-terminal PADRE-Flag-His tag
T1 sequence (Q06432 whole entry): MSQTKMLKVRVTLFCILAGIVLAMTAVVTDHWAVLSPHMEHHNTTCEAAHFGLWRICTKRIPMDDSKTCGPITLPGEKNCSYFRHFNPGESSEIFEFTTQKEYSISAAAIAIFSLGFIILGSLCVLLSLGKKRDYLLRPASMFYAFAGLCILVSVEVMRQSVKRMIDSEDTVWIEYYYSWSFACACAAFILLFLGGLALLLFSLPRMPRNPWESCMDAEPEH
Protocol: Equilibrium dissociation constants (KD values) for nanodisc embedded human CACNG1 expressed with a C-terminal PADRE-Flag-His tag (human CACNG1 nanodisc) binding to purified anti-hCACNG1 antibodies were determined using a real-time surface plasmon resonance biosensor technology with a Biacore T200 instrument. The CM5 Biacore sensor surface was derivatized by amine coupling with a monoclonal mouse anti-His antibody (Cytiva; Marlborough, MA). All Biacore binding studies were performed in a buffer composed of 0.01M HEPES, 0.15M NaCl, 1 mM CaCl₂), 0.5 mM MgCl₂, pH 7.4 (HBS-N++ running buffer). Different concentrations of anti-hCACNG1 antibodies (ranging from 300 nM to 12 nM in 5-fold serial dilutions) prepared in HBS-N++ running buffer were injected over the captured human CACNG1 nanodisc at a flow rate of 30 μL/minute. Antibody association was monitored for 2 minutes while dissociation was monitored in HBS-N++ running buffer for 5 minutes. At the end of each cycle, the human CACNG1 nanodisc capture surface was regenerated using three 10 second injections of 10 mM Gly pH1.5. All binding kinetics experiments were performed at 25° C.

[2] = molecular target: T2, human CACNG1, cell surface-expressed (human, UniProt Q06432 1-222); experiment: cell-based or functional assay
T2 sequence (Q06432 whole entry): as above

[3] = molecular target: T2, human CACNG1, cell surface-expressed; experiment: cell-based or functional assay; remark: listed apart in the source
[4] = molecular target: T2, human CACNG1, cell surface-expressed; experiment: cell-based or functional assay; remark: listed apart in the source
[5] = molecular target: T2, human CACNG1, cell surface-expressed; experiment: cell-based or functional assay; remark: listed apart in the source
[6] = molecular target: T2, human CACNG1, cell surface-expressed; experiment: cell-based or functional assay; remark: listed apart in the source
[7] = molecular target: T2, human CACNG1, cell surface-expressed; experiment: cell-based or functional assay; remark: listed apart in the source
[8] = molecular target: T3, mouse CACNG1 on myofibers of wildtype mice (mouse, UniProt O70578 1-223); experiment: immunofluorescence on live single myofibers ex vivo (wildtype mice), fluorescent secondary antibody, confocal imaging
T3 construct: whole, on cells; Target inferred from the cells: the wildtype myofibers carry mouse CACNG1, which the CACNG1^Hu/Hu mice have replaced by human CACNG1; also called wildtype (WT) myofibers
T3 sequence (looked up): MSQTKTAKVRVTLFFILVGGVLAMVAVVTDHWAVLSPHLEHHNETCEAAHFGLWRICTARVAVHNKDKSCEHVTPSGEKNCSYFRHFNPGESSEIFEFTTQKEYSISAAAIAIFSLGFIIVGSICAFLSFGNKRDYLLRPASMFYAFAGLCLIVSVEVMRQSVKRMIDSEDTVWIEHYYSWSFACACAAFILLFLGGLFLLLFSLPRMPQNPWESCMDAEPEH
Protocol: Single myofibers were isolated from either wildtype mice, mice that were homozygous for the deletion of CACNG1 (referred to as CACNG1 knockout mice), or mice that were homozygous for the expression of human CACNG1 in place of mouse CACNG1 (referred to as CACNG1^{Hu/Hu}). The gastrocnemius muscle was removed, collagenase digested, and single myofibers were isolated, washed, and incubated overnight at 37° C. at 5% C02, in DMEM+10% horse serum. […] Myofibers were then washed twice in DMEM+10% horse serum, and subsequently incubated with 10 ug/mL of fluorescent-conjugated secondary antibodies for 30 minutes, washed twice in DMEM+10% horse serum, and then fixed with 4% paraformaldehyde (PFA) for 15 minutes at room temperature. Single fibers were then washed twice with PBS, stained with Hoechst for 5 minutes, washed once more with PBS, then transferred to microscope slides, coverslipped, and imaged using a Zeiss LSM 710 confocal microscope.

B1: REGN10783 (antibody, human IgG4 S228P, kappa, V domains shown)
VH: QVQLVESGGGVVQPGTSLRLSCAASGFTFSSYGMHWVRQAPGKGLEWVAVIWIDGSNKYYADSVKGRFTISRDNSKNTLYLQMNSLRAEDTAVYYCARRGGIVVAAPFDYWGQGTLVTVSS
VL: not shown
notes: also called antibody designation 5
mAb Bound at 300 nM (RU) [1]: 9 RU

B2: REGN10716 (antibody, human IgG4 S228P, kappa, V domains shown)
VH: QVQLQESGPGLVKPSETLSLTCTVSGDSINNYYWTWLRQPPGKGLEWIGYIYYSGSANYNPSLKSRVTISVDTSKNQFSLKLNSVTAADTAVYYCARGAVKYFRHWGQGTLVTVSS
VL: EIVLTQSPGTLSLSPGERATLSCRASQTINHNNLAWYQQRPGQAPRLLIYGASNRATAIPDRFSGSGSGTDFTLTISRLEPEDFEVYSCQQYGSLPLTFGGGTKVEIKR
notes: also called antibody designation 4
mAb Bound at 300 nM (RU) [1]: 31 RU

B3: REGN14570-M3004 (antibody, V domains shown)
VH: QVQLQQWGAGLLKPSATLSRTCAVYGGSFSGYYWNWIRQSPGKGLEWIGEILHSGRTNYNPSLKSRVTISVDTSKNQFSLKLTSVTAADTAVYYCAGRIAARHGWFDPWGQGTLVTVSS
VL: DIQMTQSPSSVSTSVGDRVTISCRASQDIRKWLAWYQQKPGKAPKLLIYATSSLQSGVPSRFSGSGSGTDFTLTISSLQPEDFATYFCQQANSFPFTFGQGTKLEIKR
EC50; androgen receptor luciferase reporter (RLU), hCACNG1.AR.Luc LNCaP cells, 24 hours [2]: 2 nM | EC50; androgen receptor luciferase reporter (RLU), hCACNG1.AR.Luc LNCaP cells, 48 hours [3]: 5.83 nM | EC50; androgen receptor luciferase reporter (RLU), hCACNG1.AR.Luc LNCaP cells, 72 hours [4]: 6.65 nM

B4: REGN10715 (antibody, human IgG4 S228P, kappa, V domains shown)
VH: B3 VH
VL: B3 VL
notes: also called antibody designation 2
mAb Bound at 300 nM (RU) [1]: 31 RU

B5: REGN14573-M3004 (antibody, V domains shown)
VH: EVQLVESGGNLVQPGGSLRLSCAASGFTFTSHAMNWVRQAPGKGLEWVSVITGRGFDTHYADSVKGRFTISRDISKNTLYLQMNSLRAEDTAVYYCAKGLYDSGNYYIDYWGQGTLVTVSS
VL: QSVLTQPPSVSAAPGQKVTISCSGSSSNIGNNYVSWYQQLPGTAPKLLIYDNNKRPSGIPDRFSGSKSGTSATLGITGLQTGDEADYYCGTWDLSLSFNWVFGGGTKLTVLG
modifications: N180Q in the constant region; linker-payload M3004 (VC-PAB linker, DHT), DAR ~4
EC50; androgen receptor luciferase reporter (RLU), hCACNG1.AR.Luc LNCaP cells, 24 hours [5]: 214 nM | EC50; androgen receptor luciferase reporter (RLU), hCACNG1.AR.Luc LNCaP cells, 48 hours [6]: 213 nM | EC50; androgen receptor luciferase reporter (RLU), hCACNG1.AR.Luc LNCaP cells, 72 hours [7]: 185 nM

B6: REGN10713 (antibody, human IgG4 S228P, lambda, V domains shown)
VH: B5 VH
VL: B5 VL
notes: also called antibody designation 11
mAb Bound at 300 nM (RU) [1]: 53 RU

B7: H2aM31944N (antibody, mouse IgG2a, kappa, V domains shown)
VH: QVQLVESGGGVVQPGRSLRLSCEASGITFRNYGMHWVRQAPGKGLEWVAVMWYDGSNKYYADSVKGRFTISRDNSKNTVYLQMNSLRAEDTAVYYCARRGHIATAAPFDYWGQGTLVTVSS
VL: DIQMTQSPSSLSASVGDRVTISCRASQSISSYLNWYQQKPGKAPKVLMYAASSLQSGVPSRFSGSGSGTDFTLTISSLQPEDFATYYCQQSYSTPPITFGQGTRLEIKR
notes: also called antibody designation 6
mAb Bound at 300 nM (RU) [1]: 16 RU

B8: REGN7660 (antibody, human IgG4 S228P, kappa, V domains shown)
VH: EVQLVESGGGLVQPGGSLKLSCTASGLTLSDSAMHWVRQASGKGLEWVGRIRNKANRYATEYAASVKGRFTISRDDSKNTAYLQMNSLKTEDTAVYYCTRNWKIFLFDYWGQGTLVTVSS
VL: EIVLTQSPGTLTLSPGERATLSCRASQSVGSKYLAWFQQKRGQAPRLLIYGASSRTSGIPDRISGSGSGTDFTLTISRLEPEDFAVYYCQQYGSSPWTFGQGTKVEIKR
notes: also called antibody designation 9
mAb Bound at 300 nM (RU) [1]: 23 RU

B9: REGN14572-M3004 (antibody, V domains shown)
VH: QVQLVESGGGVVQPGRSLRLSCAASGFTFSTYGMHWVRQAPGKGLEWVAVIWHDGSDKYYVDSVKGRFSIARDNSKNTLYLQMNSLRVEDTGIYYCARRGIRGTVFDHWGLGTLVTVSS
VL: DIQMTQSPSTLSASVGDRVTLTCRASQSISNKLAWYQQKPGKAPNLLIYKASNLESGVPSRFSGSGSGTEFTLTISSLQPDDFATYYCQQYNSYSWTFGQGTKVEIKR
EC50; androgen receptor luciferase reporter (RLU), hCACNG1.AR.Luc LNCaP cells, 24 hours [2]: 11.2 nM | EC50; androgen receptor luciferase reporter (RLU), hCACNG1.AR.Luc LNCaP cells, 48 hours [3]: 11.9 nM | EC50; androgen receptor luciferase reporter (RLU), hCACNG1.AR.Luc LNCaP cells, 72 hours [4]: 10.3 nM

B10: REGN10717 (antibody, human IgG4 S228P, kappa, V domains shown)
VH: B9 VH
VL: B9 VL
notes: also called antibody designation 3
mAb Bound at 300 nM (RU) [1]: 7 RU

B11: REGN14647-M3004 (antibody, V domains shown)
VH: QVQLVESGGGVVQPGRSLRLSCTASGITFRNYGMHWVRQAPGKGLEWVAVMWYDGSNKYYADSVKGRFTISGDNSKVYLQMNSLRAEDTAVYYCARRGTIRTAAPFDYWGQGTLVTVSS
VL: not shown
modifications: N180Q in the constant region; linker-payload M3004 (VC-PAB linker, DHT), DAR ~4
EC50; androgen receptor luciferase reporter (RLU), hCACNG1.AR.Luc LNCaP cells, 24 hours [5]: 6.75 nM | EC50; androgen receptor luciferase reporter (RLU), hCACNG1.AR.Luc LNCaP cells, 48 hours [6]: 6.04 nM | EC50; androgen receptor luciferase reporter (RLU), hCACNG1.AR.Luc LNCaP cells, 72 hours [7]: 7.36 nM

B12: H2aM31929N/REGN10728 (antibody, human IgG4 S228P, kappa, V domains shown)
VH: B11 VH
VL: not shown
notes: also called antibody designation 1
mAb Bound at 300 nM (RU) [1]: 25 RU

B13: REGN9909 (antibody, mouse IgG2a, kappa, V domains shown)
VH: EVQLLESGGGLVQPGGSLRLSCAASGFTFNNYGMSWVRQGPGKGLEWVSSISGSGGTTFYADSVKGRFTISRDNSKNTLYLQMNSLRAEDTAVYYCGKGGYCSSSGCRHYGMDVWGQGTTVTVSS
VL: QSVLTQPPSASGTPGQRVTISCSGSSSNIGNNYIYWYQRLPGTTPKLLIYRNNQRPSGVPDRFSGSKSGTSASLAISGLRSEDEADYYCAAWDDTLSGYVFGTGTKVTVLR
notes: also called antibody designation 10
mAb Bound at 300 nM (RU) [1]: 22 RU

B14: H2aM31941N (antibody, V domains shown)
VH: QVQLVQSGAEVKKPGASVKVSCKASGYAFTTYGITWVRQAPGQGLEWMGWISAYNGNTNYAEKVQGRFTMTTDTSTNTAYMELRSLRSDDTAVYFCARKGHYGSGTYYNPFGFDFWGQGTMVTVSS
VL: EIMLMQSPGTLSLSPGERATLSCRASQSVSSSYLAWYQQKPGQAPRLLIYGASSRATDIPDRFSGSGSGTDFTLTISRLEPEDFAVYFCQQYYGSPWTFGQGTKVEIK
notes: also called antibody designation 8
mAb Bound at 300 nM (RU) [1]: 19 RU

B15: H1M31941N (antibody, mouse IgG1, kappa, V domains shown)
VH: B14 VH
VL: EIMLMQSPGTLSLSPGERATLSCRASQSVSSSYLAWYQQKPGQAPRLLIYGASSRATDIPDRFSGSGSGTDFTLTISRLEPEDFAVYFCQQYYGSPWTFGQGTKVEIKR
notes: as for B14
binding result [8]: no binding (tested: 100 nM)
